Test system: MS2 coat protein
Assay: apparent KD of MS2 coat protein; designed switch direction (-1 OFF switch, 1 ON switch): -1; higher = weaker reporter binding
Method in brief: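 Each step of the titration lasted 0.8–1.5 h at the lowest concentration and 10–20 min at the highest. The protein, SNAP-549-labelled MS2 coat protein, went from 0.7 or 1.5 nM doubling to 3 µM over RNA switches transcribed on Illumina chips by stalled E. coli RNA polymerase. Normalised cluster fluorescence was curve-fitted, and the per-design median over clusters is given as apparent KD.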

[1] = Eterna round: R95, input ligand: FMN 200 uM
[2] = Eterna round: R95, input ligand: microRNA oligo, concentration not stated
[3] = Eterna round: R95, input ligand: none
[4] = input ligand: microRNA oligo, concentration not stated

GGAAGACAUGAGGAUCACCCAUGUAAGGAUAUCGAAGGUAUGAGAGGAAAGAGGUUAACGAGAAGGUACAGGUG [JR_Exclu1_Sub099] (puzzle: Exclusion 1)
apparent KD of MS2 coat protein [1]: 107 nM
apparent KD of MS2 coat protein [2]: 82 nM
apparent KD of MS2 coat protein [3]: 102 nM

CAAGAACAGGUCAGGAUAUGGCAAAUAAAUAACAACCAGAAGGGACUUGAGGAUCACCCAAGUUUAGAAGGGUA [Tebeorus] (Eterna round: R97, puzzle: Brourd's mod of Exclusion 4)
apparent KD of MS2 coat protein (input ligand: FMN 200 uM): 221 nM
apparent KD of MS2 coat protein (input ligand: none): 39.4 nM

ACAUGUCAUUGAGGAUAUUGCACACAUGAGGAUCACCCAUGUAAACGGAUGCUCUUACGUGGGUUCGAGAAGGCGAUGUACAUU [Ex NG2 #94] (Eterna round: R96, puzzle: Exclusion NG 2)
apparent KD of MS2 coat protein (input ligand: FMN 200 uM): 156 nM
apparent KD of MS2 coat protein [4]: 186 nM
apparent KD of MS2 coat protein (input ligand: none): 252 nM

ACUGGUCGAGGAUAUACAUGAGGAUCACCCAUGUGAUCAGCAGUCCUCGGACUGCAAUGUAGAAGGCGACCAGU [E3/1-A2] (Eterna round: R97, puzzle: Exclusion 3)
apparent KD of MS2 coat protein (input ligand: FMN 200 uM): 143 nM
apparent KD of MS2 coat protein (input ligand: none): 356 nM

CUGAUGUGAGGAUAUCUAAAAGAAACUGGGCAAAUACCCAGAGAGAAGGCACAUGAGGAUCACCCAUGUAACGA [Anedin] (puzzle: Exclusion 4)
apparent KD of MS2 coat protein [2]: 20.9 nM

CUAUCUUGCAAGGAUAUGCAAUUUAUUAUUUAUGCAGAAGGUGCUACAUGAGGAUCACCCAUGUUUCUGGGUUU [JR_E6_Sub046] (Eterna round: R96, puzzle: Exclusion 6)
apparent KD of MS2 coat protein (input ligand: FMN 200 uM): 314 nM
apparent KD of MS2 coat protein [4]: 116 nM
apparent KD of MS2 coat protein (input ligand: none): 120 nM

CAUUAUUAUCGAGGAUAUCCUAUUGUAAUUCUGGGAGAAGGCGGACUCAACAUGAGGAUCACCCAUGUAAGACGGGUACUAGAU [Ex NG1 #21] (Eterna round: R96, puzzle: Exclusion NG 1)
apparent KD of MS2 coat protein (input ligand: FMN 200 uM): 69.5 nM
apparent KD of MS2 coat protein [4]: 61 nM
apparent KD of MS2 coat protein (input ligand: none): 92 nM

CUUUUGUGAGGAUAUCAGUAGUAAAUUAAUAAAAUUACUACUGAGAAGGCACAUGAGGAUCACCCAUGUUCCUU [Mat - Exclusion 4 - Mod of Salish - D64] (puzzle: Exclusion 4)
apparent KD of MS2 coat protein [2]: 14.9 nM

AAGAAACAUGAGGAUCACCCAUGUGAGGAUAUGACCAAGAAAAGAAAAGAAAGAAGAAUCAGAAGGCACAAAGG [salish99-ex1_r3_051] (puzzle: Exclusion 1)
apparent KD of MS2 coat protein [1]: 47.7 nM
apparent KD of MS2 coat protein [2]: 47.2 nM
apparent KD of MS2 coat protein [3]: 70.2 nM

ACGUGAUAUCUGUCGUUGGACAUGAGGAUCACCCAUGUGAGCUUUUUGCUCGUCUUAUAACCCGGUGACAGACCUUC [Aatbebeed] (puzzle: Sensor v3, turn-off variant 1)
apparent KD of MS2 coat protein [1]: 18.4 nM
apparent KD of MS2 coat protein [2]: 247 nM
apparent KD of MS2 coat protein [3]: 16.6 nM

AUUCCCACCCGAGGAUAUGCUUUAUUGCCGGGUGGUCAACAUGAGGAUCACCCAUGUAACUAAACGCAGAAGGCGGACAAUAAG [Ediner] (Eterna round: R96, puzzle: Exclusion NG 2)
apparent KD of MS2 coat protein (input ligand: FMN 200 uM): 33.5 nM
apparent KD of MS2 coat protein [4]: 116 nM
apparent KD of MS2 coat protein (input ligand: none): 33.8 nM

CAUUGUUACGGAGGAUAUCGUAUUGAGAUACUAUGAGAAGGCCGAAUAAACAUGAGGAUCACCCAUGUGAGACGGAUGCUUGUG [Ex NG1 #35] (Eterna round: R96, puzzle: Exclusion NG 1)
apparent KD of MS2 coat protein (input ligand: FMN 200 uM): 33.1 nM
apparent KD of MS2 coat protein [4]: 14.9 nM
apparent KD of MS2 coat protein (input ligand: none): 18.9 nM

ACCGAACAUGAGGAUCACCCAUGUAAGGAUAUCCGUGGACAGCGCCAAAGUUACCGGCGGAGAAGGUGCAUGGU (Eterna round: R97, puzzle: Exclusion 1)
apparent KD of MS2 coat protein (input ligand: FMN 200 uM): 24.6 nM
apparent KD of MS2 coat protein (input ligand: none): 19.2 nM

UGUUGUCGCGCAGGAUAUGGCCAACAGGCCCUAGGAUAUCGGAAACGAGAAGGAGCGCCAACAGGCGAGAAGGGCGGGACAACU [pwkr exNG2 2xF7 2xFMN.18] (Eterna round: R96, puzzle: Exclusion NG 2)
apparent KD of MS2 coat protein (input ligand: FMN 200 uM): 85.9 nM
apparent KD of MS2 coat protein [4]: 912 nM
apparent KD of MS2 coat protein (input ligand: none): 995 nM

CCGGCUUAGCAGGAUAUAGGAGUCGAUAGACACCUAGAAGGGCUAACAUGAGGAUCACCCAUGUGUCCUACCGG [Fiskers Ex 6 - 100] (puzzle: Exclusion 6)
apparent KD of MS2 coat protein [1]: 65 nM
apparent KD of MS2 coat protein [2]: 25.9 nM
apparent KD of MS2 coat protein [3]: 30.7 nM

ACAUGAGGAUCACCCAUGUCUGGCUGGUCCGUCUCGGCUGUCGAGGAUAUAGCUCGGUGUCCGCGCUAGAAGGCGGGAGCUGGU [Aenatbe mod 82] (Eterna round: R96, puzzle: Exclusion NG 3)
apparent KD of MS2 coat protein (input ligand: FMN 200 uM): 631 nM
apparent KD of MS2 coat protein [4]: 78 nM
apparent KD of MS2 coat protein (input ligand: none): 143 nM

— the supplement of paper PMC9170038
